Entries after “also recorded” stand apart in the source; their conditions may differ.
Assays:
MIK1^LRR = experiment: ITC, AtLURE1.2 titrated into MIK1^LRR; format: binding, Arabidopsis; settings: 25 °C, 200 mM HEPES pH 7.0, 100 mM NaCl, twenty injections of 0.5 mM AtLURE1.2 into 0.05 mM MIK1LRR
From the text: The genes of AtPRK3 ^LRR (residues 1–241), AtPRK4 ^LRR (residues 1–277), AtPRK5 ^LRR (residues 1–279), AtPRK6 ^LRR (residues 1–262), MIK1 ^LRR (residues 1–633), MIK2 ^LRR (residues 1–707) were amplified from Arabidopsis cDNA library by PCR and cloned into pFastBac-1 vector with a C-terminal 6 × His-tag. Their identities were confirmed by sequencing. The mature form of AtLURE1.1 (residues 20–94), AtLURE1.2 (residues 20–90), AtLURE1.3 (residues 21–91), and AtLURE1.4 (residues 20–90) were cloned into pFastBac-1 vector, with a modified N-terminal hemolin signal peptide and 6 × His-SUMO tag. Point mutation constructs were generated by QuickChange Site-Directed Mutagenesis Kit (Strategene). All the proteins were expressed using the Bac-to-Bac baculovirus expression system (Invitrogen) in High Five cells at 22 °C. One liter of High Five cells (2.0 × 10^6 cells mL^−1) cultured in the medium from Expression Systems was infected with 25 ml recombinant baculovirus and the media was collected after 72 h of infection. Secreted LRR proteins were purified using Ni-NTA (Novagen) and size-exclusion chromatography (Hiload 200, GE Healthcare) in buffer containing 10 mM Bis-Tris pH 6.0 and 100 mM NaCl. […]
Supplementary Figure 6: Binding affinity between MIK1LRR, MIK2LRR and AtLURE1.2 was not detected in ITC assay. […]

[1] = test system: prk6 pollen tubes transformed with PRK6 of wild-type; experiment: Gelatin-beads assay, prk6 pollen tubes transformed with wild-type PRK6; format: cell-based, Arabidopsis; settings: beads with 250 nM wild-type AtLURE1.2; 10–23 pollen tubes per assay, three assays
Procedure: (§1) Attraction activities of mutant AtLURE1.2 peptides were examined for semi-in-vivo pollen tubes growing through cut, pollinated pistils by gelatin-beads assay and wavy assay, [20]. For the gelatin-beads assay, pollen tubes were grown on solid pollen germination medium poured into a mold made with 1-mm thick silicone rubber and cover glasses. After hand-pollination, the topside cover glass was removed and the medium was covered with hydrated silicone oil (KF-96–100CS; Shin-Etsu). Attraction of pollen tubes toward the peptide was evaluated using AtLURE1 peptide containing gelatine beads under an inverted microscope (IX71, Olympus) equipped with a micro-manipulator (Narishige). For the AtLURE1-responsive wavy assay, the purified AtLURE1.2 peptide was added to solid pollen germination medium, which was melted at 70 °C and then cooled to a certain degree. The mixture was mixed by vortexing and poured into the mold. Pollen tubes of each genotype were grown through cut styles, as mentioned above. Each peptide (25 μM in 10 mM Bis-Tris (pH 6.0) and 100 mM NaCl) was diluted to 250 nM by cultivation medium in both assays. To examine reactivity of PRK6 mutants to AtLURE1.2, constructs for PRK6 mutants, D234A, N239A, and ΔN239I240, were generated by site-directed mutagenesis from a wild-type PRK6 vector, pPZP221-pPRK6::PRK6-mRuby2 (ref. [20]). […]

[2] = test system: prk6 pollen tubes transformed with PRK6 N239A; experiment: Wavy assay, prk6 pollen tubes transformed with N239A PRK6; format: cell-based, Arabidopsis; settings: 250 nM wild-type AtLURE1.2 in medium
Procedure: as §1, with “assays.” for “assays. To examine reactivity of PRK6 mutants to AtLURE1.2, constructs for PRK6 mutants, D234A, N239A, and ΔN239I240, were generated by site-directed mutagenesis from a wild-type PRK6 vector, pPZP221-pPRK6::PRK6-mRuby2 (ref. [20]).”
pollen tubes. Fluorescence is from mRuby2 fused to the C-terminal of PRK6 receptors, showing that all of mutant PRK6 receptors localize normally to the plasma membrane of the pollen tube tip. […]

B1: AtLURE1.2: mature form of AtLURE1.2 (residues 20–90), defensin-like cysteine-rich peptide expressed in insect cells (protein)
chain: TLINGSSDEERTYSFSPTTSPFDPRSLNQELKIGRIGYCFDCARACMRRGKYIRTCSFERKLCRCSISDIK
modifications: left off: His6, N-terminal, cleaved | SUMO, N-terminal, cleaved
notes: mature form of AtLURE1.2 (residues 20–90), defensin-like cysteine-rich peptide expressed in insect cells
MIK1^LRR
  binding in ITC: not detected; also recorded: no obvious heat was produced; also recorded: none of the purified AtPRK3^LRR, MIK1^LRR or MIK2^LRR proteins showed detectable interaction
[1]
  pollen tube attraction: attraction was normally observed
[2]
  wavy and branched pollen tube behavior: severe wavy and branched behavior; also recorded: comparable reactivity to the wild-type PRK6

— publication PMC5673899, “Structural basis for receptor recognition of pollen tube attraction peptides” (Nature Communications, 2017)
